# According to patent publication US20230136252A1 (NANJING LEGEND BIOTECH, published 2023):
# T1: recombinant human GPC2-His protein (human, UniProt Q8N158 24-554, limits assumed)
# T1 construct: Bought protein; The SPR paragraph gives no catalogue number for GPC2-His; also called recombinant Human Glypican 2 Protein; recombinant human GPC2 protein; not shown: His tag
# T1 sequence (looked up): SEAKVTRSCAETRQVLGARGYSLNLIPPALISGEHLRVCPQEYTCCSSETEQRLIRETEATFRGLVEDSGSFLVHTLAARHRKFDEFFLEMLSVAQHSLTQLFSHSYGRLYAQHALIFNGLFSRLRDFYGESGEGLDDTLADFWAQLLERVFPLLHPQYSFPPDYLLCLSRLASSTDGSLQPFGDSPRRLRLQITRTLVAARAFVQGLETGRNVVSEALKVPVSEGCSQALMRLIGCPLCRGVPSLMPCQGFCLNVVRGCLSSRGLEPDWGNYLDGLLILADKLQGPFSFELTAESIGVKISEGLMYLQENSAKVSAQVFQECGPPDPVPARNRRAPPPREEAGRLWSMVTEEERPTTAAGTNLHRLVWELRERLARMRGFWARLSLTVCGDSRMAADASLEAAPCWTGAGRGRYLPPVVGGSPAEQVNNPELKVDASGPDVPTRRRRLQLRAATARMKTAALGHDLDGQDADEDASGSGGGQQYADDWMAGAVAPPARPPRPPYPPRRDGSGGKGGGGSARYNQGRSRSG
# T2: recombinant mouse GPC2-His (mouse, UniProt Q8BKV1 22-556, limits assumed)
# T2 construct: Bought protein; also called murine GPC2; RD System Cat #2355-GP; not shown: His tag
# T2 sequence (looked up): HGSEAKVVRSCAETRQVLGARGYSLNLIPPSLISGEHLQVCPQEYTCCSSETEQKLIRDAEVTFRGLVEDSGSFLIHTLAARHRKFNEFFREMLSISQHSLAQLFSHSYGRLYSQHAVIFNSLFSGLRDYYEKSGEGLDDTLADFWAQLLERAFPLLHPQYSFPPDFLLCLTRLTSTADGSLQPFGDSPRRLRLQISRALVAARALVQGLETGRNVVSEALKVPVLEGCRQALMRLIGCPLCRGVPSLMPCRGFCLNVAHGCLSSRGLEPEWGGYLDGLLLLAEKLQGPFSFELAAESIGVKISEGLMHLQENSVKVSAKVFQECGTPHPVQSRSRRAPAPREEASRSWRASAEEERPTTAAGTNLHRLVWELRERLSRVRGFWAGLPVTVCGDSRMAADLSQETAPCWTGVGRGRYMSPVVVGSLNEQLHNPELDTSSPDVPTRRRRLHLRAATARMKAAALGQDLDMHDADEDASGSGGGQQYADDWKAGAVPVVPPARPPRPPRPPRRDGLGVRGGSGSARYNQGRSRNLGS
# B1: AS70950VH6-hIgG1Fc (Fc fusion)
# chain: EVQLVESGGGLVQPGGSLRLSCAISEFTYKNTCVGWFRQAPGKGREGVAAIDSDGNTNYVDSVKGRFTISQDNSKNTVYLQMNSLRAEDTAMYYCAAGAYCGRLLLWIGNYAYWGQGTLVTVSS
# notes: also called anti-GPC2 VHH-hIgG1Fc; not shown: human IgG1 Fc fragment (hIgG1Fc)
# B2: AS78117VH4-hIgG1Fc (Fc fusion)
# chain: EVQLVESGGGLVQPGGSLRLSCIVSRYTYATYSMAWFRQAPGKGLEGVSGLDSVGATGYAESVKGRFTISRDNSKNTLYLQMNSLRAEDTAVYYCVVDPASAKVTYGSWSTPSYAYWGQGTLVTVSS
# notes: as for B1
# B3: AS79236VH6-hIgG1Fc (Fc fusion)
# chain: EVQLVESGGGLVQPGGSLRLSCAVSGYTYSSYCMAWFRQAPGKGLEGVASIDAGGRTTYVDSVKGRFTISKDNAKNSLYLQMNSLRAEDTAMYYCAVDVRTRCGGTWDGEAVYFPYWGQGTLVTVSS
# notes: as for B1
# Experiments:
# [1] = molecular target: T1, recombinant human GPC2-His protein; assay: SPR, Biacore T200, GPC2-His amine-coupled to CM5 chip, VHH-hIgG1Fc as analyte, 1:1 model
# Procedure: Each of the exemplary anti-GPC2 VHH sequences was cloned into a vector comprising a human IgG1Fc fragment (hlgG1Fc) sequence to facilitate recombinant expression of anti-GPC2 VHH-hlgG1Fc. Recombinant proteins were obtained and purified for SPR assays. The affinity of each anti-GPC2 VHH-hIgG1Fc for GPC2 was determined by SPR using a BIACORE® T200 analytical system (GE Healthcare). Briefly, recombinant human GPC2-His protein was covalently coupled to a CM5(s) sensor chip using an amine coupling kit. Exemplary VHH-hIgG1Fc proteins were serially diluted in running buffer (10 mM HEPES, 150 mM NaCl, 3 mM EDTA, 0.05% Tween-20, pH 7.4) and injected over the chip cell at a flowrate of 100 μL/min for 100 seconds followed by buffer-only injection for 300 seconds to allow for antibody dissociation. The dissociation […] (KD) were determined using the BIACORE® T200 evaluation software version 3.0 (Langmuir binding, local fit, 1:1 binding model).
# [2] = molecular target: T2, recombinant mouse GPC2-His; assay: ELISA, plate coated with 2 ug/mL rmGPC2, VHH-hIgG1Fc detected with HRP goat anti-human IgG, OD450
# Procedure: To evaluate the specificity of humanized anti-GPC2 VHH5 to recombinant human GPC2 protein, an ELISA-based binding assay was conducted to determine the differential target proteins binding of anti-GPC2 VHH5. Briefly, microplates were coated with 2 μg/mL recombinant human GPC1-His (RD System, Cat #4519-GP), GPC2-His (RD System, Cat #2304-GP), GPC3-His (ACRO, Cat #GP3-H5223), GPC4-Fc (RD System, Cat #9195-GP), GPC5-His (RD System, Cat #2607-G5/CF), GPC6-His (RD System, Cat #2845-GP) or recombinant mouse GPC2-His (RD System, Cat #2355-GP) proteins. Recombinant human protein coated plates were blocked with skim milk. Serially diluted humanized VHH-hIgG1Fc recombinant antibodies were added to each well of the plates and incubated at 4° C. for 1.5 h. Samples were further labelled with HRP-conjugated goat anti human IgG (H+L) secondary antibody (Genescript, Cat #A00166-1) and signal was developed with 3,3′,5,5′-Tetramethylbenzidine (TMB) substrate according to manufacturer's instruction. For the GPC4, VHH-His recombinant antibodies and anti-His tag secondary antibody (Genescript, Cat #A00612) were added to the GPC4-Fc coated plates instead. Optic density at 450 nm was measured by plate reader.
Binder,Kd [1] [nM],koff [1] [s⁻¹],kon [1] [M⁻¹ s⁻¹],binding result [2]
B1,0.27,0.00011,390000,no binding (tested: about 300 nM)
B2,0.82,0.00017,200000,no binding (tested: about 300 nM)
B3,0.37,0.00019,530000,no binding (tested: about 300 nM)
